This experiment deals with Mouse SR-BI CGG mutant (positions 321-323) (mouse) (UniProt Q61009). The experiment can be described thus: radioligand binding.

Take “Human high density lipoprotein (HDL), labeled with 125I (complex)”: the reduction in binding compared to the WT receptor was found to be 20%.

These data come from publication PMC3566775.
